Data on three molecules can be found in article PMC2120828 (The Journal of Cell Biology, 1996).

Test in all cases: two-hybrid
Assay [1] has as its target DBDlexA-Cdc42(Q61L/C188S) (S. cerevisiae, UniProt P19073 1-191, Q61L | C188S).
The target in assay [2] is DBDlexA-Cdc42(D118A/C188S) (S. cerevisiae, UniProt P19073 1-191, D118A | C188S).
The target of assay [3] is DBDlexA-Cdc42(C188S) (S. cerevisiae, UniProt P19073 1-191, C188S).
Sequence of DBDlexA-Cdc42(C188S) (P19073 whole entry C188S): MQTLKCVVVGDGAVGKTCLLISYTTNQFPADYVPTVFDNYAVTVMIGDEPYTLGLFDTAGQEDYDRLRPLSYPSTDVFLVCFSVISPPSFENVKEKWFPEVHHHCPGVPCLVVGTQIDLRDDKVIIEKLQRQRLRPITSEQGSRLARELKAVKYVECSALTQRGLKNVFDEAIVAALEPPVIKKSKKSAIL

Sequence of DBDlexA-Cdc42(D118A/C188S) (P19073 whole entry D118A/C188S): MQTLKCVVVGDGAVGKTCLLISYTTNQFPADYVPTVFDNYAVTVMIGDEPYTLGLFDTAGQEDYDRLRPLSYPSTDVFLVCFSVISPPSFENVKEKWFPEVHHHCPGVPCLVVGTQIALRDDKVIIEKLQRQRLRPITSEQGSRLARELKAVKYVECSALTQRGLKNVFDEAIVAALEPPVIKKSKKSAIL
Sequence of DBDlexA-Cdc42(Q61L/C188S) (P19073 whole entry Q61L/C188S): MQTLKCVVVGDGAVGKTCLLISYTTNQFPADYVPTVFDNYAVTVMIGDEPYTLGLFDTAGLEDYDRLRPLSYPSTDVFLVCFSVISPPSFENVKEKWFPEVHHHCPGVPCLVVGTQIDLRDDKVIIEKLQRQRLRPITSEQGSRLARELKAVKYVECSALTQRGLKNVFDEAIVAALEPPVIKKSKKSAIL

B1: ADGal4-BOI1(375-980) (domain or fragment, S. cerevisiae)
chain: ILDMTEVPNLFADKDIFESPGRAPKPPSYPSPVQPPQSPSFNNRYTNNNARFPPQTTYPPKNKNPTVYSNGLIPNSSTSSDNSTGKFKFPAMNGHDSNSRKTTLTSATIPSINTVNTDESLPAISNISSNATSHHPNRNSVVYNNHKRTESGSSFVDLFNRISMLSPVKSSFDEEETKQPSKASRAVFDSARRKSSYGHSRDASLSEMKKHRRNSSILSFFSSKSQSNPTSPTKQTFTIDPAKMTSHSRSQSNSYSHARSQSYSHSRKHSLVTSPLKTSLSPINSKSNIALAHSETPTSSNNKEAVSQPSEGKHKHKHKHKSKHKHKNSSSKDGSSEEKSKKKLFSSTKESFVGSKEFKRSPSELTQKSTKSILPRSNAKKQQTSAFTEGIRSITAKESMQTADCSGWMSKKGTGAMGTWKQRFFTLHGTRLSYFTNTNDEKERGLIDITAHRVLPASDDDRLISLYAASLGKGKYCFKLVPPQPGSKKGLTFTEPRVHYFAVENKSEMKAWLSAIIKATIDIDTSVPVISSYATPTIPLSKAQTLLEEARLQTQLRDAEEEEGRDQFGWDDTQNKRNSNYPIEQDQFETSDYLESSAFEYPGGRL
With B1, the figures for the beta-galactosidase activity in assay [1] and in assay [2] were 400 and less than 0.02, respectively.

B2: ADGal4-BOI1(731-980) (domain or fragment, S. cerevisiae)
chain: EFKRSPSELTQKSTKSILPRSNAKKQQTSAFTEGIRSITAKESMQTADCSGWMSKKGTGAMGTWKQRFFTLHGTRLSYFTNTNDEKERGLIDITAHRVLPASDDDRLISLYAASLGKGKYCFKLVPPQPGSKKGLTFTEPRVHYFAVENKSEMKAWLSAIIKATIDIDTSVPVISSYATPTIPLSKAQTLLEEARLQTQLRDAEEEEGRDQFGWDDTQNKRNSNYPIEQDQFETSDYLESSAFEYPGGRL
Regarding B2, the beta-galactosidase activity in assay [3] is 380; in assay [1], 230; in assay [2], less than 0.02.

B3: ADGal4-BOI1(375-557) (domain or fragment, S. cerevisiae)
chain: ILDMTEVPNLFADKDIFESPGRAPKPPSYPSPVQPPQSPSFNNRYTNNNARFPPQTTYPPKNKNPTVYSNGLIPNSSTSSDNSTGKFKFPAMNGHDSNSRKTTLTSATIPSINTVNTDESLPAISNISSNATSHHPNRNSVVYNNHKRTESGSSFVDLFNRISMLSPVKSSFDEEETKQPSKA
The molecule B3 displayed a beta-galactosidase activity in assay [2] of less than 0.02.
